Measurements from the RNAGym collection of RNA variant scans (doi:10.1021/acssynbio.7b00057).

B1: Pistol ribozyme (parent)
chain: GGGUCGUUGUUCCAUAAUCGCGUGGAUAUGGCACGCAAGUUUCUACCGGGCACCGUAAAUGUCCGACUGGAGCCGUUCGGGCGGCUAUAAACAGACCUCAGGCCCGAAGCGUGGCGGCACCUGCCGCCGGUGGUAAAAAAGAUCGGAAGAGCACACGUCU

Variants of: B1
Assay: aptazyme ON/OFF ratio, guanine; higher = stronger switching; co-transcriptional cleavage with and without guanine

In order of rising “aptazyme ON/OFF ratio” value:
1. GGGUCGUCACUCAAUAAUCGCGUGGAUAUGGCACGCAAGUUUCUACCGGGCACCGUAAAUGUCCGACUGGAGCCGUUCGGGCGGCUAUAAACAGACCUCAGGCCCGAAGCGUGGCGGCACCUGCCGCCGGUGGUAAAAAAGAUCGGAAGAGCACACGUCU [U8C G9A U10C C13A]  1.06
2. GGGUCGUCACUCGAUAAUCGCGUGGAUAUGGCACGCAAGUUUCUACCGGGCACCGUAAAUGUCCGACUGGAGCCGUUCGGGCGGCUAUAAACAGACCUCAGGCCCGAAGCGUGGCGGCACCUGCCGCCGGUGGUAAAAAAGAUCGGAAGAGCACACGUCU [U8C G9A U10C C13G]  1.1
3. GGGUCGUCACCAUAUAAUCGCGUGGAUAUGGCACGCAAGUUUCUACCGGGCACCGUAAAUGUCCGACUGGAGCCGUUCGGGCGGCUAUAAACAGACCUCAGGCCCGAAGCGUGGCGGCACCUGCCGCCGGUGGUAAAAAAGAUCGGAAGAGCACACGUCU [U8C G9A U10C U11C C12A C13U]  1.1
4. GGGUCGUCACCAGAUAAUCGCGUGGAUAUGGCACGCAAGUUUCUACCGGGCACCGUAAAUGUCCGACUGGAGCCGUUCGGGCGGCUAUAAACAGACCUCAGGCCCGAAGCGUGGCGGCACCUGCCGCCGGUGGUAAAAAAGAUCGGAAGAGCACACGUCU [U8C G9A U10C U11C C12A C13G]  1.12
5. GGGUCGUCACCAAAUAAUCGCGUGGAUAUGGCACGCAAGUUUCUACCGGGCACCGUAAAUGUCCGACUGGAGCCGUUCGGGCGGCUAUAAACAGACCUCAGGCCCGAAGCGUGGCGGCACCUGCCGCCGGUGGUAAAAAAGAUCGGAAGAGCACACGUCU [U8C G9A U10C U11C C12A C13A]  1.13
6. GGGUCGUCACACGAUAAUCGCGUGGAUAUGGCACGCAAGUUUCUACCGGGCACCGUAAAUGUCCGACUGGAGCCGUUCGGGCGGCUAUAAACAGACCUCAGGCCCGAAGCGUGGCGGCACCUGCCGCCGGUGGUAAAAAAGAUCGGAAGAGCACACGUCU [U8C G9A U10C U11A C13G]  1.15
7. GGGUCGUCACCACAUAAUCGCGUGGAUAUGGCACGCAAGUUUCUACCGGGCACCGUAAAUGUCCGACUGGAGCCGUUCGGGCGGCUAUAAACAGACCUCAGGCCCGAAGCGUGGCGGCACCUGCCGCCGGUGGUAAAAAAGAUCGGAAGAGCACACGUCU [U8C G9A U10C U11C C12A]  1.17
8. GGGUCGUCACUGAAUAAUCGCGUGGAUAUGGCACGCAAGUUUCUACCGGGCACCGUAAAUGUCCGACUGGAGCCGUUCGGGCGGCUAUAAACAGACCUCAGGCCCGAAGCGUGGCGGCACCUGCCGCCGGUGGUAAAAAAGAUCGGAAGAGCACACGUCU [U8C G9A U10C C12G C13A]  1.18
9. GGGUCGUCACCGCAUAAUCGCGUGGAUAUGGCACGCAAGUUUCUACCGGGCACCGUAAAUGUCCGACUGGAGCCGUUCGGGCGGCUAUAAACAGACCUCAGGCCCGAAGCGUGGCGGCACCUGCCGCCGGUGGUAAAAAAGAUCGGAAGAGCACACGUCU [U8C G9A U10C U11C C12G]  1.18
10. GGGUCGUCACAGUAUAAUCGCGUGGAUAUGGCACGCAAGUUUCUACCGGGCACCGUAAAUGUCCGACUGGAGCCGUUCGGGCGGCUAUAAACAGACCUCAGGCCCGAAGCGUGGCGGCACCUGCCGCCGGUGGUAAAAAAGAUCGGAAGAGCACACGUCU [U8C G9A U10C U11A C12G C13U]  1.19
11. GGGUCGUCACAAUAUAAUCGCGUGGAUAUGGCACGCAAGUUUCUACCGGGCACCGUAAAUGUCCGACUGGAGCCGUUCGGGCGGCUAUAAACAGACCUCAGGCCCGAAGCGUGGCGGCACCUGCCGCCGGUGGUAAAAAAGAUCGGAAGAGCACACGUCU [U8C G9A U10C U11A C12A C13U]  1.19
12. GGGUCGUCACACAAUAAUCGCGUGGAUAUGGCACGCAAGUUUCUACCGGGCACCGUAAAUGUCCGACUGGAGCCGUUCGGGCGGCUAUAAACAGACCUCAGGCCCGAAGCGUGGCGGCACCUGCCGCCGGUGGUAAAAAAGAUCGGAAGAGCACACGUCU [U8C G9A U10C U11A C13A]  1.2
13. GGGUCGUCACUUUAUAAUCGCGUGGAUAUGGCACGCAAGUUUCUACCGGGCACCGUAAAUGUCCGACUGGAGCCGUUCGGGCGGCUAUAAACAGACCUCAGGCCCGAAGCGUGGCGGCACCUGCCGCCGGUGGUAAAAAAGAUCGGAAGAGCACACGUCU [U8C G9A U10C C12U C13U]  1.21
14. GGGUCGUCACAGAAUAAUCGCGUGGAUAUGGCACGCAAGUUUCUACCGGGCACCGUAAAUGUCCGACUGGAGCCGUUCGGGCGGCUAUAAACAGACCUCAGGCCCGAAGCGUGGCGGCACCUGCCGCCGGUGGUAAAAAAGAUCGGAAGAGCACACGUCU [U8C G9A U10C U11A C12G C13A]  1.23
15. GGGUCGUCACAAAAUAAUCGCGUGGAUAUGGCACGCAAGUUUCUACCGGGCACCGUAAAUGUCCGACUGGAGCCGUUCGGGCGGCUAUAAACAGACCUCAGGCCCGAAGCGUGGCGGCACCUGCCGCCGGUGGUAAAAAAGAUCGGAAGAGCACACGUCU [U8C G9A U10C U11A C12A C13A]  1.23
16. GGGUCGUCACUGCAUAAUCGCGUGGAUAUGGCACGCAAGUUUCUACCGGGCACCGUAAAUGUCCGACUGGAGCCGUUCGGGCGGCUAUAAACAGACCUCAGGCCCGAAGCGUGGCGGCACCUGCCGCCGGUGGUAAAAAAGAUCGGAAGAGCACACGUCU [U8C G9A U10C C12G]  1.24
17. GGGUCGUCACCGAAUAAUCGCGUGGAUAUGGCACGCAAGUUUCUACCGGGCACCGUAAAUGUCCGACUGGAGCCGUUCGGGCGGCUAUAAACAGACCUCAGGCCCGAAGCGUGGCGGCACCUGCCGCCGGUGGUAAAAAAGAUCGGAAGAGCACACGUCU [U8C G9A U10C U11C C12G C13A]  1.24
18. GGGUCGUCACCCCAUAAUCGCGUGGAUAUGGCACGCAAGUUUCUACCGGGCACCGUAAAUGUCCGACUGGAGCCGUUCGGGCGGCUAUAAACAGACCUCAGGCCCGAAGCGUGGCGGCACCUGCCGCCGGUGGUAAAAAAGAUCGGAAGAGCACACGUCU [U8C G9A U10C U11C]  1.25
19. GGGUCGUCACUGUAUAAUCGCGUGGAUAUGGCACGCAAGUUUCUACCGGGCACCGUAAAUGUCCGACUGGAGCCGUUCGGGCGGCUAUAAACAGACCUCAGGCCCGAAGCGUGGCGGCACCUGCCGCCGGUGGUAAAAAAGAUCGGAAGAGCACACGUCU [U8C G9A U10C C12G C13U]  1.25
20. GGGUCGUCACUUGAUAAUCGCGUGGAUAUGGCACGCAAGUUUCUACCGGGCACCGUAAAUGUCCGACUGGAGCCGUUCGGGCGGCUAUAAACAGACCUCAGGCCCGAAGCGUGGCGGCACCUGCCGCCGGUGGUAAAAAAGAUCGGAAGAGCACACGUCU [U8C G9A U10C C12U C13G]  1.26
21. GGGUCGUCACAAGAUAAUCGCGUGGAUAUGGCACGCAAGUUUCUACCGGGCACCGUAAAUGUCCGACUGGAGCCGUUCGGGCGGCUAUAAACAGACCUCAGGCCCGAAGCGUGGCGGCACCUGCCGCCGGUGGUAAAAAAGAUCGGAAGAGCACACGUCU [U8C G9A U10C U11A C12A C13G]  1.27
22. GGGUCGUCACAUUAUAAUCGCGUGGAUAUGGCACGCAAGUUUCUACCGGGCACCGUAAAUGUCCGACUGGAGCCGUUCGGGCGGCUAUAAACAGACCUCAGGCCCGAAGCGUGGCGGCACCUGCCGCCGGUGGUAAAAAAGAUCGGAAGAGCACACGUCU [U8C G9A U10C U11A C12U C13U]  1.28
23. GGGUCGUCACUUAAUAAUCGCGUGGAUAUGGCACGCAAGUUUCUACCGGGCACCGUAAAUGUCCGACUGGAGCCGUUCGGGCGGCUAUAAACAGACCUCAGGCCCGAAGCGUGGCGGCACCUGCCGCCGGUGGUAAAAAAGAUCGGAAGAGCACACGUCU [U8C G9A U10C C12U C13A]  1.29
24. GGGUCGUCACACUAUAAUCGCGUGGAUAUGGCACGCAAGUUUCUACCGGGCACCGUAAAUGUCCGACUGGAGCCGUUCGGGCGGCUAUAAACAGACCUCAGGCCCGAAGCGUGGCGGCACCUGCCGCCGGUGGUAAAAAAGAUCGGAAGAGCACACGUCU [U8C G9A U10C U11A C13U]  1.3
25. GGGUCGUCACCGGAUAAUCGCGUGGAUAUGGCACGCAAGUUUCUACCGGGCACCGUAAAUGUCCGACUGGAGCCGUUCGGGCGGCUAUAAACAGACCUCAGGCCCGAAGCGUGGCGGCACCUGCCGCCGGUGGUAAAAAAGAUCGGAAGAGCACACGUCU [U8C G9A U10C U11C C12G C13G]  1.3
26. GGGUCGUCACUAUAUAAUCGCGUGGAUAUGGCACGCAAGUUUCUACCGGGCACCGUAAAUGUCCGACUGGAGCCGUUCGGGCGGCUAUAAACAGACCUCAGGCCCGAAGCGUGGCGGCACCUGCCGCCGGUGGUAAAAAAGAUCGGAAGAGCACACGUCU [U8C G9A U10C C12A C13U]  1.33
27. GGGUCGUCACAUGAUAAUCGCGUGGAUAUGGCACGCAAGUUUCUACCGGGCACCGUAAAUGUCCGACUGGAGCCGUUCGGGCGGCUAUAAACAGACCUCAGGCCCGAAGCGUGGCGGCACCUGCCGCCGGUGGUAAAAAAGAUCGGAAGAGCACACGUCU [U8C G9A U10C U11A C12U C13G]  1.33
28. GGGUCGUCACAGCAUAAUCGCGUGGAUAUGGCACGCAAGUUUCUACCGGGCACCGUAAAUGUCCGACUGGAGCCGUUCGGGCGGCUAUAAACAGACCUCAGGCCCGAAGCGUGGCGGCACCUGCCGCCGGUGGUAAAAAAGAUCGGAAGAGCACACGUCU [U8C G9A U10C U11A C12G]  1.37
29. GGGUCGUCACAUAAUAAUCGCGUGGAUAUGGCACGCAAGUUUCUACCGGGCACCGUAAAUGUCCGACUGGAGCCGUUCGGGCGGCUAUAAACAGACCUCAGGCCCGAAGCGUGGCGGCACCUGCCGCCGGUGGUAAAAAAGAUCGGAAGAGCACACGUCU [U8C G9A U10C U11A C12U C13A]  1.37
30. GGGUCGUCACUGGAUAAUCGCGUGGAUAUGGCACGCAAGUUUCUACCGGGCACCGUAAAUGUCCGACUGGAGCCGUUCGGGCGGCUAUAAACAGACCUCAGGCCCGAAGCGUGGCGGCACCUGCCGCCGGUGGUAAAAAAGAUCGGAAGAGCACACGUCU [U8C G9A U10C C12G C13G]  1.4
31. GGGUCGUCACAACAUAAUCGCGUGGAUAUGGCACGCAAGUUUCUACCGGGCACCGUAAAUGUCCGACUGGAGCCGUUCGGGCGGCUAUAAACAGACCUCAGGCCCGAAGCGUGGCGGCACCUGCCGCCGGUGGUAAAAAAGAUCGGAAGAGCACACGUCU [U8C G9A U10C U11A C12A]  1.44
32. GGGUCGUCACAGGAUAAUCGCGUGGAUAUGGCACGCAAGUUUCUACCGGGCACCGUAAAUGUCCGACUGGAGCCGUUCGGGCGGCUAUAAACAGACCUCAGGCCCGAAGCGUGGCGGCACCUGCCGCCGGUGGUAAAAAAGAUCGGAAGAGCACACGUCU [U8C G9A U10C U11A C12G C13G]  1.5
33. GGGUCGUCACAUCAUAAUCGCGUGGAUAUGGCACGCAAGUUUCUACCGGGCACCGUAAAUGUCCGACUGGAGCCGUUCGGGCGGCUAUAAACAGACCUCAGGCCCGAAGCGUGGCGGCACCUGCCGCCGGUGGUAAAAAAGAUCGGAAGAGCACACGUCU [U8C G9A U10C U11A C12U]  1.55
34. GGGUCGUCACUCUAUAAUCGCGUGGAUAUGGCACGCAAGUUUCUACCGGGCACCGUAAAUGUCCGACUGGAGCCGUUCGGGCGGCUAUAAACAGACCUCAGGCCCGAAGCGUGGCGGCACCUGCCGCCGGUGGUAAAAAAGAUCGGAAGAGCACACGUCU [U8C G9A U10C C13U]  1.66
35. GGGUCGUCACUUCAUAAUCGCGUGGAUAUGGCACGCAAGUUUCUACCGGGCACCGUAAAUGUCCGACUGGAGCCGUUCGGGCGGCUAUAAACAGACCUCAGGCCCGAAGCGUGGCGGCACCUGCCGCCGGUGGUAAAAAAGAUCGGAAGAGCACACGUCU [U8C G9A U10C C12U]  1.95
36. GGGUCGUCACACCAUAAUCGCGUGGAUAUGGCACGCAAGUUUCUACCGGGCACCGUAAAUGUCCGACUGGAGCCGUUCGGGCGGCUAUAAACAGACCUCAGGCCCGAAGCGUGGCGGCACCUGCCGCCGGUGGUAAAAAAGAUCGGAAGAGCACACGUCU [U8C G9A U10C U11A]  3.76
